The record followed here is PMC3168981 (Nature structural & molecular biology, 2011).

The target in the assay is T1, AlexaFluor488-labeled human PLCβ3-Δ892 R872A L876A L879A triple mutant (human, UniProt Q01970 10-891, R872A | L876A | L879A).
T1 sequence: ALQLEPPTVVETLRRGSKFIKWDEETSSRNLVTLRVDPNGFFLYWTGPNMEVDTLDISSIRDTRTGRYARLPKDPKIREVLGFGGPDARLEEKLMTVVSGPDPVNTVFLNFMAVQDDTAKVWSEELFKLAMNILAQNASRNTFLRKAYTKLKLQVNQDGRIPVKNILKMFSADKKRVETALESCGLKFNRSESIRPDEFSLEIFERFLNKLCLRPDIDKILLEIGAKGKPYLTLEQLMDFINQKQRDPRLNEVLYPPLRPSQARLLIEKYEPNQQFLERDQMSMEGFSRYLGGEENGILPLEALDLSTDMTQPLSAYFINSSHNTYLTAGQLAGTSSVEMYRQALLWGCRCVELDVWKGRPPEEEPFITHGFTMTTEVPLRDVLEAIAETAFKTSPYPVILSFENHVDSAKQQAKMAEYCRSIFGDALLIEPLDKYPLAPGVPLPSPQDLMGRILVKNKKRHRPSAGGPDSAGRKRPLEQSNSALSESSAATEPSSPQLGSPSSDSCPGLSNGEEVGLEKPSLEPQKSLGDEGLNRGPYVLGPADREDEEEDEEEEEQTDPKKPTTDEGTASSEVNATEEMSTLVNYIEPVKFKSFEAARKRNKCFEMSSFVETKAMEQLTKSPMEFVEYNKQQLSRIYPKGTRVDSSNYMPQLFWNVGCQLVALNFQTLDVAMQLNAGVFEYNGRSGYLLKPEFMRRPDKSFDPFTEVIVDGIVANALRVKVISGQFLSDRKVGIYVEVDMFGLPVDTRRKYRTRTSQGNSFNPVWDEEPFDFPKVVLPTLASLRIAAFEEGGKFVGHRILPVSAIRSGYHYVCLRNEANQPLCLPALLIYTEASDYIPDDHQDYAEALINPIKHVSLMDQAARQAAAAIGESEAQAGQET
Nature of the assay: flow cytometry protein interaction assay. A general note: A flow cytometer gives signals particle by particle.

B1: Gαi/q chimera (murine Gαq with its N-terminal helix replaced with that of Gαi), biotinylated, AlF4-activated (other)
chain: MGCTLSAEDKAAVERSKMIDRNLREDGEKARRELKLLLLGTGESGKSTFIKQMRIIHGSGYSDEDKRGFTKLVYQNIFTAMQAMIRAMDTLKIPYKYEHNKAHAQLVREVDVEKVSAFENPYVDAIKSLWNDPGIQECYDRRREYQLSDSTKYYLNDLDRVADPSYLPTQQDVLRVRVPTTGIIEYPFDLQSVIFRMVDVGGQRSERRKWIHCFENVTSIMFLVALSEYDQVLVESDNENRMEESKALFRTIITYPWFQNSSVILFLNKKDLLEEKIMYSHLVDYFPEYDGPQRDAQAAREFILKMFVDLNPDSDKIIYSHFTCATDTENIRFVFAAVKDTILQLNLKEYNLV
modifications: biotinylated (sites not given)
In general, Kd refers to a measure of binding affinity in units of concentration. Lower therefore signals a tighter complex. Turning to B1, binding was characterised by a dissociation constant (Kd) of 20.5 nM.
